The kcat is the maximal rate divided by the concentration of active sites. Usually Km stands for the concentration of substrate that gives half-maximal velocity.

The nature of series [1]: Hydrolysis of pNP substrates, colorimetric assay (Galβ1,3GlcNAc). Format: biochemical.
The nature of series [2]: Hydrolysis of pNP substrates, colorimetric assay (Core 2). Format: biochemical. The settings on record: Galβ1,3(GlcNAcβ1,6)GalNAcα1pNP Core 2, 25° C., 16 h, 405 nm.
Series [3] is described as follows: Transglycosylation to 1-alkanols, Core 3 donor (TLC). In kind it is biochemical. To be noted: 0.8 mM GlcNAcβ1,3GalNAcα1ρNP donor, 1-alkanols as acceptors, room temperature, 16 h. The text has this:
The transglycosylation activity can be similarly determined for EngAA*.

A short description of series [4]: Hydrolysis of pNP substrates, colorimetric assay (Core 3). Format: biochemical.
Series [5] can be described thus: Hydrolysis of pNP substrates, colorimetric assay (GalNAc). The settings on record: GalNAcα1pNP, 25° C., 16 h, 405 nm. In kind it is biochemical.
A short description of series [6]: Hydrolysis of pNP substrates, colorimetric assay (Core 1). In kind it is biochemical. To be noted: Galβ1,3GalNAcα1pNP Core 1, 0.25 mM substrate, 25° C., 16 h, 405 nm.
Series [7] relates to CC(=O)N[C@H]1[C@H](O[C@H]2[C@@H](O)[C@@H](CO)O[C@H](Oc3ccc([N+](=O)[O-])cc3)[C@@H]2NC(C)=O)O[C@H](CO)[C@@H](O)[C@@H]1O. In words: purified protein, by the assay type. To be noted: other: Core 3 substrate, 25° C., average of three measurements.
In series [8] the test system is CC(=O)N[C@H]1[C@@H](Oc2ccc([N+](=O)[O-])cc2)O[C@H](CO)[C@H](O)[C@@H]1O[C@@H]1O[C@H](CO)[C@H](O)[C@H](O)[C@H]1O. In words: purified protein, by the assay type. The settings on record: 25.0 °C.
For series [9], the target named is Propionibacterium acnes endo-α-GalNAcase EngPA (YP_056270.1), SEQ ID NO:3 (Cutibacterium acnes, UniProt A0ABM7H013). Briefly: Steady-state enzyme kinetics of EngPA. The settings on record: EngPA compared with EngEF.
The subject of series [10] is Bifidobacterium longum endo-α-GalNAcase EngBF, SEQ ID NO:5. To be noted: Core 1 substrate; data from Fujita et al. (2005); cited from earlier work.

In the case of “EngSP: endo-α-GalNAcase from Streptococcus pneumoniae, purchased from Roche [reference compound]”, the “% product released” value in series [1] stood at 0%; in series [2], 0.6%; in series [4] it was 3%; in series [5], 1.2%; in series [6], 100%. Besides, the transglycosylation products result in [3] is recorded as “no significant difference”.
Take “Propionibacterium acnes endo-α-GalNAcase EngPA (YP_056270.1), SEQ ID NO:3 (Cutibacterium acnes subsp. acnes)”: in series [7], the kcat was determined as 28.9 s⁻¹.
On to “Clostridium perfringens endo-α-GalNAcase EngCP (YP_695137.1), SEQ ID NO:6 (Clostridium perfringens ATCC 13124)”, for which, in series [8], the Km was 70.93 µM and the kcat is 19.9 s⁻¹.
As for “Enterococcus faecalis endo-α-GalNAcase EngEF (NP_815498.1), SEQ ID NO:2 (Enterococcus faecalis V583)”, the kcat in series [7] stood at 9.43 s⁻¹.
For `CC(=O)N[C@H]1[C@H](O[C@H]2[C@@H](O)[C@@H](CO)O[C@H](Oc3ccc([N+](=O)[O-])cc3)[C@@H]2NC(C)=O)O[C@H](CO)[C@@H](O)[C@@H]1O` [GlcNAcβ1,3GalNAcα1ρNP], in series [9] (Core 3 substrate), the “kcat, times higher than EngEF” value is on record as 3 times.
For the molecule `CC(=O)N[C@H]1[C@@H](Oc2ccc([N+](=O)[O-])cc2)O[C@H](CO)[C@H](O)[C@@H]1O[C@@H]1O[C@H](CO)[C@H](O)[C@H](O)[C@H]1O` [Galβ1,3GalNAcα1ρNP], in series [10], the Km was 21.8 µM and the kcat is 17.8 s⁻¹. Moreover, the “kcat, times lower than EngEF” value in [9] (Core 1 substrate) was “about 25 times”.

B1: EngEF: recombinant endo-α-GalNAcase (O-glycosidase) of Enterococcus faecalis (protein, listed as Enterococcus faecalis)
chain: MKHGKIKRFSTLTLLASATILVPLSTSAEETTNSSTETSSSMVEPTATEEKLWQSDFPGGKTGEWQDVIGKTNRELAGESLAISRDAAAGNNAVSLNLDSPKLADGEVETKFKYTAGSGRTGVIIRGNTKDSWVFVGYNANGKWLVESPNSWNDSISGPTLNEDTNYLLKVRYVGEKITIWLNTTLIYEGEPVLANGDKIPTEAGHVGVRLWYDKKIVNYDYFKNGPVDSIPEIVPEVTQIAPVKVFTKIGVAPKLPKQVKVTYNTGKEANEAVRWNEIDPDAYKEPGTFEVDGTLENTNIKAKASIVVAKDNEAEKGDKISSADLTAVVDPQFPRIIRYEDPQSNQVIFNGQHEKIDQVMIDGKAYKATAEKQKSEANQAVYNVAVPEIGLRFTTTLTVSEGQELAMKLSDIREEGTKIHTISIPNQGLISVNSTDEGATFAGVVMNTGTNANNGNKNGDTIQDLTTTSQEETKKYMYGFLNTANYAASFWTNAYGDGSVDGSDNNRIHKQTKEAATGFVTTLSSGAWTYRPFDAPEDYTTGETPEVKVKFSKDSNDDNRVDWQDAAIGFRSIMNNPMGAEKVPELVNQRIPFNFASQATNPFLVTLDESKRIYNLTDGLGQMNLLKGYQNEGHDSAHPDYGAIGQRPGGEQALNQLIDEGHKLNAVFGVHINDTESYPEAKGFNEELVDPTKRGWDWLDPSYFIKQRPDTLSGRRYERFKELKQKAPNLDYIYVDVWGNQGESGWASRQLSKEINSLGWFTTNEFPNALEYDSVWNHWSAEKDYGGTTTKGFNSTIVRFIRNHQKDTWIISDNPLLGGAEFEAYEGWVGKTNFNTYRQKTFAINVPTKFLQHYQITNWETTTAADGQIYGTIKLANGAEKVTVTQADANSPRSITLNETEVLKGDAYLLPWNVNGQDKLYHWNPKGGTSTWSLDKKMQGKTNLHLYELTDQGRIDKGAIATTNNQVTIQAEANTPYVIAEPDSIEPMTFGTGTPFKDPGFNEANTLKNNWKVFRGDGEVKKDANGDYVFSSEKERTEIKQDINLPKPGKYSLYLNTETHDRKATVTVKIGGKKYTRTVNNSVAQNYIQADINHTSRKNPQYMQNMRIDFEIPDNAKKGSVTLAVDKGNSVTKFDDLRIVERQTDIMNPDKQTVIKQDFEDTQAVGLYPFVKGSAGGVEDPRIHLSERNEPYTQYGWNGNLVSDVLEGNWSLKAHKQGAGLMLQTIPQNIKFEPNKKYTVQFDYQTDGENVFTAGTINGELKNNNDFKPVGELTSTAADGQTKHYEAEIIGDASGNTTFGIFTTGADKDFIMDNFTVTVESKK
On to B1, for which the “% product released” value in series [1] stood at 0%; in series [2], 2%; in series [4], 100%; in [5] it was 2.2%; in series [6], 100%. Also, the transglycosylation products entry in series [3] is “no significant difference”. Besides, the “hydrolysis of the Core 3 disaccharide (in words)” value in series [4] is on record as “fully hydrolyzing”.

B2: EngPA: recombinant endo-α-GalNAcase of Propionibacterium acnes (protein)
chain: MSRTPRGRSIGALAVSAGTMLALIAPTAPAHAETRYRQINQAAITAVAADSATATDPISNTLDGNPDTIWHTTWQNGKDPLPHWIVFKLGDEAVNLGKVEITPRSSSNGSGRMHDYELYTANTKTCNNAAFSSAKPVATGSYGASDTSIRKITFAATKATCVKVKVNSSWGGDGSDEEVSSMAEFNAFTVDGSDPSPDPTPSEPPTPEVPKDAISLSDGTVTVRARRDFPQVIDYTVGHAHMAGRIGSPLTKVRINGADHVATVSAPTTTGSSASWKLTFRDLPGVELTADIKVSDGVMTWSIPHIVDTPDHRVNTVSVPGLTLASVTSTDPKAQLSSANIVVDRNKTGDLFQPLATADVSQDTSWVAMANDSTLAAGFEDNATQDGLVGSAATVARFVHSISQVGGTKVGAIEPATWVHRGKGSATPFPTDSLGNKAVCQLPGGATVKDGIGPDPDTPYVRVKIVADANADGKVDWQDAAVATRDVTMKPTGSGDVANKVITHIPFNIVSQATHPFLRTLDDVKRISLATDGLGQQALLKGYQAEGHDSAHPDYGGNVSHRAGGMKDLEKLTESGRQWNTDFGIHVNLVESYPEANHFGDNILVKPYQKAWDWMEQSYRMDYAKDLGSGQLFARLNQLRKELGAKSNLDWLYFDTNYPAGWQNDRIANALNAEGWRIGSEWSSTYPRYNQWSHWANDENYGTGNKGYSSRIIRFIDNSRRDTWNPDPILGNSNVVEYEGWTSHNDYNAFIANVWQRNLPTKFLQRSDIMSWQDGRIAFANGAVATSSKKSISGHEIPTARTITFDGATVFKEGGSYLLPWSNGGSDRLYYWNPGNGSATWKLTNSWAAQKSVSLFMLTDTGRVKVAEIPVTNRSIRIPATKAKTAYVLYPTSKVPAAKTPNWGEGSHFANPGFYSGDTAGWNARGNVSVKHNDRGNFHLEFGKAQSQISQVLNLPAGDHSLWAWVQIDPTKTRPVGLAVDGTGVTPIDHQKGCGGHAESVITSTTAINATASDEYFGTYHQRLRVAFHSDGRPVTVTLKALAGNAIVSADDFRVVDAAVPSDPHVTPATVLFQNFEDVDTGYWPFVTGSAGMEGDARTQLSRRHEPYTQKGWNGRAMDSVLSGDWSLKMHEERNGIVLRTTTASAPLTGGGTRYRISFDYQADKPGYSFVTGHDKVSGKSVKEVITESHAMGVATSTTHFSTDIVVKDQPAWIGFTHQGEGDMSIDNLRIEKLDPRPISVTSTQAAVFPDACKPTPEPIQPAQPSASAPTTSGSPQAPGTGNRPNRYALPRTGADGAGLGFSSSEAASATAAVGVSRQGR
modifications: Propionibacterium acnes
On to B2, for which the “% product released” value in series [1] turned out to be 0%; in series [2] it was 0%; in series [4], 100%; in series [5], 1.8%; in series [6], 100%. The transglycosylation products entry in series [3] is on record as “no significant difference”. Also, the “hydrolysis of the Core 3 disaccharide (in words)” value in series [4] is “fully hydrolyzing”.

The values above are taken from patent US8969034B2, “Endoglycosidases that cleave O-linked glycans” (New England Biolabs, Inc., priority 2008, dated 2015).
